# Earlier results, collected in PMC10218885.
# Key:
# Assay in all cases: NMR
# Tyr98 = Tyr98 (UniProt position 98, EYTFDYQMTPT)
# Tyr76 = Tyr76 (UniProt position 76, DSPEFYGKFKE)
# Tyr42 = Tyr42 (UniProt position 42, GNILQYNAAEG)
# Tyr118 = Tyr118 (UniProt position 118, LSGDSYWVFVK)
# Tyr94 = Tyr94 (UniProt position 94, NTMFEYTFDYQ)
substance,measurement,setting,value
Photoactive yellow protein (PYP) (Stated in the article as Halobacterium halobium; the PYP of the cited study is from Halorhodospira halophila (formerly Ectothiorhodospira halophila)),pKa,Tyr98,10.2–10.3
same,pKa,Tyr76,10.2–10.3
same,pKa,Tyr42,> 13
same,pKa,Tyr118,11.4–12.0
same,pKa,Tyr94,> 13
